The values below are quoted from earlier work in article PMC12731121.

One series concerns the target MIF (Homo sapiens) (UniProt P14174).
For series [1], the target named is D-dopachrome tautomerase (MIF-2) (Homo sapiens) (UniProt P30046).
For series [2], the target named is Cathepsin H (Homo sapiens) (UniProt P09668).
For series [3], the target named is Cathepsin S (Homo sapiens) (UniProt P25774).
For series [4], the target named is Cathepsin L (Homo sapiens) (UniProt P07711).
Chain of Cathepsin L (Homo sapiens) (P07711 292-333): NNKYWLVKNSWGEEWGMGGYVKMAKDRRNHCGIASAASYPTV

Chain of CD74 p41 thyropin domain (P04233 210-271): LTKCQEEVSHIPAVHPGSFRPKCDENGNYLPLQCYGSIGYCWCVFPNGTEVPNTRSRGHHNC
Chain of CD74 (P04233 73-296): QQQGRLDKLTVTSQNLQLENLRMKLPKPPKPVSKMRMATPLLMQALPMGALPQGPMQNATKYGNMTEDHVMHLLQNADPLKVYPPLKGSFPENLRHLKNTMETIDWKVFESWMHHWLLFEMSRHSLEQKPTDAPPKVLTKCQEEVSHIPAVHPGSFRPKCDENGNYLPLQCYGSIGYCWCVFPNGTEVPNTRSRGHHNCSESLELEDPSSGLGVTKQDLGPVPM
Chain of Cathepsin H (Homo sapiens) (P09668 whole entry, looked up): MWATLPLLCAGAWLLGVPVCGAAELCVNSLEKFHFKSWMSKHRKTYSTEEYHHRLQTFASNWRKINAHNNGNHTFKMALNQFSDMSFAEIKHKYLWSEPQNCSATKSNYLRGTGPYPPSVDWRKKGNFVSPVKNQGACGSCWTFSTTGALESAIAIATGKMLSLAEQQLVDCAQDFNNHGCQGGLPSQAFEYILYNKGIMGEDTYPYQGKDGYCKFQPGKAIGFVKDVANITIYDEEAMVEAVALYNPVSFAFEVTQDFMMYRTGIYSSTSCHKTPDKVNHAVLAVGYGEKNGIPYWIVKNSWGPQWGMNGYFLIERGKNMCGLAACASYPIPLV
Chain of Cathepsin S (Homo sapiens) (P25774 115-331): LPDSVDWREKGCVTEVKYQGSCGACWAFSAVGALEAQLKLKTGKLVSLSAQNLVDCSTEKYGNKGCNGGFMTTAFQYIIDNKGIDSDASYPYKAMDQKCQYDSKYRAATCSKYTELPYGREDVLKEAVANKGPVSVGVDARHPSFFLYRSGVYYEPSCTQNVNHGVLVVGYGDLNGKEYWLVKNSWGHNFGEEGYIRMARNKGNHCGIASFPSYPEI
Chain of D-dopachrome tautomerase (MIF-2) (Homo sapiens) (P30046 2-118): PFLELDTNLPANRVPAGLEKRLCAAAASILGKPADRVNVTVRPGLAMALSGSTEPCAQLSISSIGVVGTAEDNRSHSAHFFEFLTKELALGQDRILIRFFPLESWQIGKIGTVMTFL
Chain of MIF (Homo sapiens) (P14174 2-115): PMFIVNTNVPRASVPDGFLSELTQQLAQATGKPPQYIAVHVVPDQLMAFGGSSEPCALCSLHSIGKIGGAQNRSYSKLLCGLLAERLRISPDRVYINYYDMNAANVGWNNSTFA

Broadly, the Kd is the equilibrium constant for the complex coming apart. For CD74 (from UniProt P04233), the Kd in the series with MIF (Homo sapiens) is 1.4 nM; in series [1] it was 5.4 nM.
The term Ki denotes the equilibrium dissociation constant of an inhibitor or competing ligand from its target. Consider “CD74 p41 thyropin domain (from UniProt P04233)”, for which the values for the Ki in series [2], in series [3] and in series [4] were 5.3 nM, 208 nM and 0.0017 nM, respectively.
